Test results as given in patent publication US20150359907A1 (GENISPHERE, published 2015).
Ends that are not written are not given here.

Target: T1, transferrin receptor (TfR/CD71) on TfR-expressing LAPC-4 cells (human, UniProt P02786 1-760)
T1 construct: whole, on cells
Assay: binding of dendrimer to cells in vitro; method not detailed

T1 sequence (P02786 whole entry): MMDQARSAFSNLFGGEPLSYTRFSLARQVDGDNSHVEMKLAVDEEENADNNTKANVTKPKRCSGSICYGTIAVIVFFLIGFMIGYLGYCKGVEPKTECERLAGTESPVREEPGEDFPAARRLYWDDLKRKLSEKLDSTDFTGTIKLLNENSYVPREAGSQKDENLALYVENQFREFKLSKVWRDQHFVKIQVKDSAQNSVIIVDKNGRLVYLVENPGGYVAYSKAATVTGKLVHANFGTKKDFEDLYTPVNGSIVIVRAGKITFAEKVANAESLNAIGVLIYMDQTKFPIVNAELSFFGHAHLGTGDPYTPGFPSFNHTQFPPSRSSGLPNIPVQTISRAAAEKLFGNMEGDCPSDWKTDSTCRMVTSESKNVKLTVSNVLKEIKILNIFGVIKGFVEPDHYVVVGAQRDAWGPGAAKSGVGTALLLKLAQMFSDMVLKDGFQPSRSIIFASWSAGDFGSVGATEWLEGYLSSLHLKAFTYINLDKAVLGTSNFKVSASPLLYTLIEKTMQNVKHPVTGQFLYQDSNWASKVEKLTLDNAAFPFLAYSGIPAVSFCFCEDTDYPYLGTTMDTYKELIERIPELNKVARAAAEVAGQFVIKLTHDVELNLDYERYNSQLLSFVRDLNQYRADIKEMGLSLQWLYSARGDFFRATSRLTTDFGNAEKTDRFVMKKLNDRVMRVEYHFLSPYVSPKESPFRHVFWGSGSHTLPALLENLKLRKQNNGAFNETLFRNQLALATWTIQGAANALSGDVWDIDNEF

B1: TfR peptide-derivatized dendrimer (transferrin receptor (TfR/CD71) targeting peptide THRPPMWSPVWP on a 2-layer DNA dendrimer) (peptide)
peptide: THRPPMWSPVWP
modifications: also: coupled to oligonucleotide cplCap03 on a DNA dendrimer, site not given here
notes: The peptide-oligonucleotide conjugate was hybridised to capture oligonucleotides on a Cy3-labelled 2-layer DNA dendrimer carrying a ligated plasmid; About 2-5 peptides per dendrimer molecule; The protein part is only the 12-mer peptide; also called TfR targeting peptide; 2n-Cy3 3DNA-TfR peptide-K5/CFP
binding result: binds
